Experimental findings from PMC10716038, “Talin and kindlin use integrin tail allostery and direct binding to activate integrins” (Nature Structural & Molecular Biology, 2023) are described below.

Several values for one entry are separate records, joined by “and”; a condition that tells them apart may be missing. Identical values can stand only once. No end group written: not given here.

Common to all, as to conditions: both partners purified
The target of experiment [1] is T1, talin-1 head domain (THD1) (UniProt P26039 1-405).
T1 construct: talin-1 (TLN1) head domain (THD), residues 1-405; murine TLN1 cDNA is named only for the cell lines; also called WT; source: E. coli (DE3) Rosetta 2, purified (IMAC, SEC); not shown: His10-SUMO, N-terminal, cleaved
Nature of the experiment: MST; unlabelled protein titrated to 50-200 nM ATTO 488-labelled β-CT peptide, no third protein; 20 mM Tris pH 7.5, 200 mM NaCl, 1 mM TCEP, 0.05% Tween-20; Kd of individual titrations (in S0002 mean and sd, n = 2).

Experiment [2] addresses T2, THD1 K402E (UniProt P26039 1-405, K402E).
T2 construct: talin-1 (TLN1) head domain, residues 1-405, K402E; source: E. coli (DE3) Rosetta 2, purified (IMAC, SEC); not shown: His10-SUMO, N-terminal, cleaved
The experiment is described as above.

Experiment [3] concerns the target T1, talin-1 head domain (THD1). As to the kind of experiment: MST; apparent; THD1 titrated to 488–β1-CT or 488–β3-CT in the presence of 500–1,100 µM KIND2-F0; MST buffer.
For experiment [4], the target named is T3, kindlin-2 (KIND2) (UniProt Q8CIB5 1-680).
T3 construct: kindlin-2 (KIND2), recombinant; with the F1 loop and the PH domain (unlike ΔKIND2); source: E. coli Rosetta, purified (IMAC, SEC); not shown: His10-SUMO, N-terminal, cleaved
T3 sequence (looked up): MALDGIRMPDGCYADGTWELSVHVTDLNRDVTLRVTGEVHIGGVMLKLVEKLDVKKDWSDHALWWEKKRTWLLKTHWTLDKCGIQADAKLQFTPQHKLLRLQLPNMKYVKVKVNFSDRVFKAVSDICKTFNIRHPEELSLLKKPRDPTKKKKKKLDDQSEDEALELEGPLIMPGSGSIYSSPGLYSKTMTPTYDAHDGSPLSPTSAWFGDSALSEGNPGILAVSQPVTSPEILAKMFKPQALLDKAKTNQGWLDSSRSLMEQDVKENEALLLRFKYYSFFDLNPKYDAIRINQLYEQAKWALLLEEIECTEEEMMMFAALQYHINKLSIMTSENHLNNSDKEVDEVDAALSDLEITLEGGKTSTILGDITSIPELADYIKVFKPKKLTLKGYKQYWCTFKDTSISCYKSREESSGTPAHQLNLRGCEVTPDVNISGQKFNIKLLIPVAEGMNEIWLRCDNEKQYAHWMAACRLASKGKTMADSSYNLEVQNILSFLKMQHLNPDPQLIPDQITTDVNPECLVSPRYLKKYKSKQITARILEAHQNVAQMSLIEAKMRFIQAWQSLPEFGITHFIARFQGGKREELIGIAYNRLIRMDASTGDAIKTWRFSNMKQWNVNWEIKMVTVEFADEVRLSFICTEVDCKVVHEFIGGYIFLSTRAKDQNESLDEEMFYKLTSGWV
Nature of the experiment: MST; apparent; KIND2 titrated to 488–β3-CT in the presence of 250–450 µM THD1; MST buffer.

Experiment [5] has as its target T4, THD1 KKAA (UniProt P26039 1-405, KKAA (KK402/403)).
T4 construct: the sheet prints only 'KKAA'; source: E. coli (DE3) Rosetta 2, purified (IMAC, SEC); not shown: His10-SUMO, N-terminal, cleaved
As to the kind of experiment: MST; apparent; THD1 or THD1 mutants titrated to 488–β3-CT in the presence of 30-40 µM KIND2; MST buffer.

For experiment [6], the target named is T5, THD1 L400A (UniProt P26039 1-405, L400A).
T5 construct: talin-1 (TLN1) head domain, residues 1-405, L400A; source: E. coli (DE3) Rosetta 2, purified (IMAC, SEC); not shown: His10-SUMO, N-terminal, cleaved
The experiment is described as above.

Experiment [7] has as its target T6, THD1 K401A (UniProt P26039 1-405, K401A).
T6 construct: talin-1 (TLN1) head domain, residues 1-405, K401A; source: E. coli (DE3) Rosetta 2, purified (IMAC, SEC); not shown: His10-SUMO, N-terminal, cleaved
Described as above.

Experiment [8] has as its target T7, THD1 K402A (UniProt P26039 1-405, K402A).
T7 construct: talin-1 (TLN1) head domain, residues 1-405, K402A; source: E. coli (DE3) Rosetta 2, purified (IMAC, SEC); not shown: His10-SUMO, N-terminal, cleaved
The experiment is described as above.

T1 sequence (P26039 1-405): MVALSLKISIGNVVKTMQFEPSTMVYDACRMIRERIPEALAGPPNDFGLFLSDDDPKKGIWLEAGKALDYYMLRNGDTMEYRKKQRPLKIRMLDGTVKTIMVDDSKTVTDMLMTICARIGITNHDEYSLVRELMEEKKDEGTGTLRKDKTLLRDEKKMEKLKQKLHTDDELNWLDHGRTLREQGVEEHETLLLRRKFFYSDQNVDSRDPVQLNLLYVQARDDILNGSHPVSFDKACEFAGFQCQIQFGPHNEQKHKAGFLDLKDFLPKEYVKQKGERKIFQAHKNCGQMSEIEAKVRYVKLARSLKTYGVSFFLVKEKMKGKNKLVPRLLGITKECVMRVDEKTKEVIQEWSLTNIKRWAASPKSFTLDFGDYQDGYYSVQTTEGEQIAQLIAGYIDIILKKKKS
T2 sequence (P26039 1-405 K402E): as the sequence (P26039 1-405) above, with K402E counted along it
T4 sequence (P26039 other isoform, or with tags, fused parts or gaps KKAA (KK402/403) | KKAA (KK402/403)): as the sequence (P26039 1-405) above, with K402A, K403A counted along it
T5 sequence (P26039 1-405 L400A): as the sequence (P26039 1-405) above, with L400A counted along it
T7 sequence (P26039 1-405 K402A): as the sequence (P26039 1-405) above, with K402A counted along it
T6 sequence (P26039 1-405 K401A): as the sequence (P26039 1-405) above, with K401A counted along it

B1: ATTO 488-labeled integrin β3 cytoplasmic tail (488–β3-CT) (peptide, UniProt O54890 741-787, looked up)
peptide: {ATTO 488}-KLLITIHDRKEFAKFEEERARAKWDTANNPLYKEATSTFTNITYRGT
notes: integrin β3 cytoplasmic tail (β3-CT); source: synthetic peptide (MPIB Core Facility)
Consider B1, for which the Kd in experiment [1] is 127 µM and 115 µM and 93.9 µM and 85.5 µM; in experiment [2] it was 37.8 µM and 35.5 µM and 32.5 µM; in experiment [3], 105 µM and 87.6 µM; in experiment [4], 30.7 µM and 85.6 µM and 31.9 µM and 66 µM; in experiment [5], 88.3 µM; in experiment [6], 180 µM. Besides, the Kd was 148 µM in experiment [7] and 117 µM in experiment [8].
